The values below come from the supplement of paper PMC9112550, “Optimization of the antimicrobial peptide Bac7 by deep mutational scanning” (BMC Biology, 2022).

The series deals with Escherichia coli TOP10. Nature of the series: shrunken log2 fold change of peptide-encoding DNA abundance (4.5 h post-induction vs induction); higher = less antimicrobial activity (less host growth inhibition). The following applies: time post-induction: 4.5 h; library: site-saturation at positions 5, 18, 19, 20.
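Note: peptides expressed intracellularly from a pBAD plasmid library in pooled LB shake-flask culture, induced with 0.3% L-arabinose, DNA abundance read by NGS, three biological replicates, DESeq2 with apeglm shrinkage.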

For the sequence RRIRLRPPRLPRPRPRPRDQPRP, the “shrunken log2 fold change” value stood at 0.0949.

Take RRIRERPPRLPRPRPRPDSIPRP: the “shrunken log2 fold change” value was -0.042.

Regarding RRIRQRPPRLPRPRPRPDFFPRP, the “shrunken log2 fold change” value was determined as 0.00508.

Turning to RRIRQRPPRLPRPRPRPDDYPRP, the “shrunken log2 fold change” value was found to be 0.0372.

Consider RRIRFRPPRLPRPRPRPQYWPRP, for which the “shrunken log2 fold change” value was -0.462.

As for RRIRPRPPRLPRPRPRPSTWPRP, the “shrunken log2 fold change” value came to 0.0689.

For the sequence RRIRNRPPRLPRPRPRPPSFPRP, the “shrunken log2 fold change” value was -0.0746.

With RRIRQRPPRLPRPRPRPPDKPRP, the “shrunken log2 fold change” value is -0.116.

With RRIRIRPPRLPRPRPRPWTGPRP, the “shrunken log2 fold change” value was -0.0257.

For the sequence RRIRNRPPRLPRPRPRPEVQPRP, the “shrunken log2 fold change” value was 0.0358.

In the case of RRIRTRPPRLPRPRPRPKFMPRP, the “shrunken log2 fold change” value is -0.0326.

As for RRIRRRPPRLPRPRPRPDLGPRP, the “shrunken log2 fold change” value amounted to 0.104.

For RRIRIRPPRLPRPRPRPMSCPRP, the “shrunken log2 fold change” value was -0.141.

RRIRTRPPRLPRPRPRPEQPPRP: the “shrunken log2 fold change” value was found to be 0.309.

In the case of RRIRFRPPRLPRPRPRPVGDPRP, the “shrunken log2 fold change” value came to 0.535.

On to RRIRVRPPRLPRPRPRPKMQPRP, for which the “shrunken log2 fold change” value was 0.0937.

As to RRIRGRPPRLPRPRPRPMSFPRP, the “shrunken log2 fold change” value was found to be 0.308.

As for RRIRSRPPRLPRPRPRPACEPRP, the “shrunken log2 fold change” value came out at 0.233.

In the case of RRIRWRPPRLPRPRPRPSEHPRP, the “shrunken log2 fold change” value was -0.0852.

As to RRIRIRPPRLPRPRPRPRCTPRP, the “shrunken log2 fold change” value was -0.141.

RRIRHRPPRLPRPRPRPLYRPRP: the “shrunken log2 fold change” value was -0.343.

Take RRIRCRPPRLPRPRPRPHCVPRP: the “shrunken log2 fold change” value is -0.439.

As for RRIRRRPPRLPRPRPRPYQNPRP, the “shrunken log2 fold change” value is -0.74.

Regarding RRIRYRPPRLPRPRPRPGTPPRP, the “shrunken log2 fold change” value amounted to 1.16.

On to RRIRFRPPRLPRPRPRPFNGPRP, for which the “shrunken log2 fold change” value is -0.163.

RRIRKRPPRLPRPRPRPSACPRP: the “shrunken log2 fold change” value is -0.0843.

Take RRIRIRPPRLPRPRPRPGFYPRP: the “shrunken log2 fold change” value came out at 0.054.

On to RRIRWRPPRLPRPRPRPIPYPRP, for which the “shrunken log2 fold change” value is -0.031.

In the case of RRIRVRPPRLPRPRPRPFFDPRP, the “shrunken log2 fold change” value was 1.19.

RRIRYRPPRLPRPRPRPYNTPRP: the “shrunken log2 fold change” value was -1.88.

RRIRRRPPRLPRPRPRPMPHPRP: the “shrunken log2 fold change” value is -0.124.

For the sequence RRIRHRPPRLPRPRPRPKQHPRP, the “shrunken log2 fold change” value is -0.2.

Turning to RRIRNRPPRLPRPRPRPWACPRP, the “shrunken log2 fold change” value was found to be 0.0014.

For the sequence RRIRMRPPRLPRPRPRPKAEPRP, the “shrunken log2 fold change” value worked out at 3.05.

On to RRIRNRPPRLPRPRPRPRSEPRP, for which the “shrunken log2 fold change” value stood at 0.139.

For the sequence RRIRLRPPRLPRPRPRPQENPRP, the “shrunken log2 fold change” value was -0.261.

In the case of RRIRPRPPRLPRPRPRPLRRPRP, the “shrunken log2 fold change” value is 0.805.

For the sequence RRIRTRPPRLPRPRPRPKFTPRP, the “shrunken log2 fold change” value was -0.0912.

Consider RRIRRRPPRLPRPRPRPTPMPRP, for which the “shrunken log2 fold change” value was found to be 1.08.

In the case of RRIRVRPPRLPRPRPRPKEDPRP, the “shrunken log2 fold change” value was 0.0522.

As for RRIRGRPPRLPRPRPRPEPKPRP, the “shrunken log2 fold change” value came to 0.45.

For the sequence RRIRPRPPRLPRPRPRPFRVPRP, the “shrunken log2 fold change” value was found to be 0.0659.

For the sequence RRIRLRPPRLPRPRPRPIINPRP, the “shrunken log2 fold change” value was -0.448.

As to RRIRIRPPRLPRPRPRPQPKPRP, the “shrunken log2 fold change” value was -0.0343.

As to RRIRYRPPRLPRPRPRPPKDPRP, the “shrunken log2 fold change” value turned out to be 0.0611.

Turning to RRIRSRPPRLPRPRPRPTVHPRP, the “shrunken log2 fold change” value was -0.0989.

Regarding RRIRMRPPRLPRPRPRPPPMPRP, the “shrunken log2 fold change” value is 1.54.

For the sequence RRIRHRPPRLPRPRPRPRFGPRP, the “shrunken log2 fold change” value was found to be 0.0573.

Regarding RRIRYRPPRLPRPRPRPESKPRP, the “shrunken log2 fold change” value was -0.859.

As to RRIRSRPPRLPRPRPRPACMPRP, the “shrunken log2 fold change” value was 0.159.

For the sequence RRIRTRPPRLPRPRPRPNKVPRP, the “shrunken log2 fold change” value is -0.326.

Consider RRIRPRPPRLPRPRPRPHEGPRP, for which the “shrunken log2 fold change” value was determined as 0.0172.

RRIRIRPPRLPRPRPRPVKCPRP: the “shrunken log2 fold change” value worked out at 0.101.

For RRIRNRPPRLPRPRPRPHFMPRP, the “shrunken log2 fold change” value is -0.409.

Regarding RRIRARPPRLPRPRPRPICKPRP, the “shrunken log2 fold change” value is -0.159.

Consider RRIRIRPPRLPRPRPRPMCTPRP, for which the “shrunken log2 fold change” value is -0.0274.

For RRIRLRPPRLPRPRPRPGSWPRP, the “shrunken log2 fold change” value came to 0.18.

For the sequence RRIRYRPPRLPRPRPRPPSNPRP, the “shrunken log2 fold change” value is -0.266.

With RRIRHRPPRLPRPRPRPGPGPRP, the “shrunken log2 fold change” value turned out to be 0.282.

For RRIRVRPPRLPRPRPRPDWEPRP, the “shrunken log2 fold change” value was 0.00682.

With RRIRLRPPRLPRPRPRPEFWPRP, the “shrunken log2 fold change” value was determined as 0.417.

For the sequence RRIRVRPPRLPRPRPRPECIPRP, the “shrunken log2 fold change” value was -0.0283.

RRIRCRPPRLPRPRPRPDKPPRP: the “shrunken log2 fold change” value amounted to 0.0422.

As to RRIRTRPPRLPRPRPRPNYVPRP, the “shrunken log2 fold change” value is -0.35.

Consider RRIRTRPPRLPRPRPRPNWYPRP, for which the “shrunken log2 fold change” value was -0.382.

As to RRIRARPPRLPRPRPRPCSTPRP, the “shrunken log2 fold change” value is -0.0691.

RRIRSRPPRLPRPRPRPMKPPRP: the “shrunken log2 fold change” value was -0.0309.

For the sequence RRIRNRPPRLPRPRPRPLGFPRP, the “shrunken log2 fold change” value worked out at 0.0608.

Regarding RRIRPRPPRLPRPRPRPLSMPRP, the “shrunken log2 fold change” value was -0.33.

Regarding RRIRTRPPRLPRPRPRPYVWPRP, the “shrunken log2 fold change” value is -0.131.

For the sequence RRIRPRPPRLPRPRPRPRLIPRP, the “shrunken log2 fold change” value is 0.292.

With RRIRMRPPRLPRPRPRPEHGPRP, the “shrunken log2 fold change” value came out at 0.406.

As for RRIRPRPPRLPRPRPRPKWGPRP, the “shrunken log2 fold change” value was found to be 0.0577.

On to RRIRIRPPRLPRPRPRPLCIPRP, for which the “shrunken log2 fold change” value was -0.484.

RRIRDRPPRLPRPRPRPFNMPRP: the “shrunken log2 fold change” value is -0.186.

RRIRKRPPRLPRPRPRPLVDPRP: the “shrunken log2 fold change” value stood at 0.218.

As to RRIRPRPPRLPRPRPRPDFCPRP, the “shrunken log2 fold change” value is -0.0633.

As for RRIRPRPPRLPRPRPRPYNLPRP, the “shrunken log2 fold change” value was -0.708.

RRIRIRPPRLPRPRPRPSIWPRP: the “shrunken log2 fold change” value was -0.0823.

Consider RRIRHRPPRLPRPRPRPHTFPRP, for which the “shrunken log2 fold change” value was -0.386.

RRIRLRPPRLPRPRPRPFHPPRP: the “shrunken log2 fold change” value was -0.0146.

In the case of RRIRARPPRLPRPRPRPFCQPRP, the “shrunken log2 fold change” value is -0.0229.

With RRIRARPPRLPRPRPRPMEIPRP, the “shrunken log2 fold change” value is 0.146.

Take RRIRMRPPRLPRPRPRPKQPPRP: the “shrunken log2 fold change” value was 2.34.

RRIRTRPPRLPRPRPRPSGEPRP: the “shrunken log2 fold change” value amounted to 2.88.

For the sequence RRIRNRPPRLPRPRPRPTICPRP, the “shrunken log2 fold change” value is -0.119.

For the sequence RRIRSRPPRLPRPRPRPCPMPRP, the “shrunken log2 fold change” value was -0.337.

Take RRIRMRPPRLPRPRPRPPNNPRP: the “shrunken log2 fold change” value stood at 0.436.

On to RRIRTRPPRLPRPRPRPQIPPRP, for which the “shrunken log2 fold change” value is -0.235.

Regarding RRIRYRPPRLPRPRPRPSALPRP, the “shrunken log2 fold change” value is -0.638.

For RRIRGRPPRLPRPRPRPIHHPRP, the “shrunken log2 fold change” value is -0.0166.

As to RRIRIRPPRLPRPRPRPHCVPRP, the “shrunken log2 fold change” value was -0.533.

Consider RRIRERPPRLPRPRPRPLFIPRP, for which the “shrunken log2 fold change” value was -0.0618.

In the case of RRIRFRPPRLPRPRPRPTGTPRP, the “shrunken log2 fold change” value is 0.0314.

Take RRIRLRPPRLPRPRPRPNVHPRP: the “shrunken log2 fold change” value was -0.505.

Regarding RRIRQRPPRLPRPRPRPINAPRP, the “shrunken log2 fold change” value was -0.116.

For RRIRMRPPRLPRPRPRPIPHPRP, the “shrunken log2 fold change” value turned out to be 0.246.

RRIRLRPPRLPRPRPRPWRPPRP: the “shrunken log2 fold change” value turned out to be 0.105.

As to RRIRHRPPRLPRPRPRPKPKPRP, the “shrunken log2 fold change” value worked out at 0.231.

Regarding RRIRHRPPRLPRPRPRPYNFPRP, the “shrunken log2 fold change” value is -0.078.

For RRIRRRPPRLPRPRPRPRPGPRP, the “shrunken log2 fold change” value stood at 0.557.

Regarding RRIRTRPPRLPRPRPRPRCDPRP, the “shrunken log2 fold change” value came to 0.13.

Take RRIRNRPPRLPRPRPRPTDVPRP: the “shrunken log2 fold change” value was -0.0793.

In the case of RRIRARPPRLPRPRPRPLVWPRP, the “shrunken log2 fold change” value amounted to 0.774.

On to RRIRVRPPRLPRPRPRPLPAPRP, for which the “shrunken log2 fold change” value worked out at 0.449.

With RRIRIRPPRLPRPRPRPAQMPRP, the “shrunken log2 fold change” value was -0.0791.

Turning to RRIRWRPPRLPRPRPRPGHKPRP, the “shrunken log2 fold change” value was -0.14.

As for RRIRHRPPRLPRPRPRPQPYPRP, the “shrunken log2 fold change” value is -1.53.

Take RRIRERPPRLPRPRPRPERDPRP: the “shrunken log2 fold change” value is -0.0208.

In the case of RRIRMRPPRLPRPRPRPLVDPRP, the “shrunken log2 fold change” value stood at 0.526.

Take RRIRDRPPRLPRPRPRPQLKPRP: the “shrunken log2 fold change” value was -0.0603.

In the case of RRIRYRPPRLPRPRPRPIERPRP, the “shrunken log2 fold change” value was found to be 0.0253.

Turning to RRIRPRPPRLPRPRPRPPFDPRP, the “shrunken log2 fold change” value was found to be 0.228.

As for RRIRSRPPRLPRPRPRPKFRPRP, the “shrunken log2 fold change” value is -0.183.

For the sequence RRIRPRPPRLPRPRPRPYRQPRP, the “shrunken log2 fold change” value is -0.0384.

In the case of RRIRFRPPRLPRPRPRPKMDPRP, the “shrunken log2 fold change” value was -0.0752.

For the sequence RRIRTRPPRLPRPRPRPCPDPRP, the “shrunken log2 fold change” value was -0.283.

Turning to RRIRARPPRLPRPRPRPRKNPRP, the “shrunken log2 fold change” value was 0.472.

For the sequence RRIRWRPPRLPRPRPRPPRIPRP, the “shrunken log2 fold change” value amounted to 0.245.

Regarding RRIRDRPPRLPRPRPRPMRIPRP, the “shrunken log2 fold change” value is -0.0494.

As to RRIRARPPRLPRPRPRPQPSPRP, the “shrunken log2 fold change” value was 0.555.

In the case of RRIRKRPPRLPRPRPRPDDHPRP, the “shrunken log2 fold change” value amounted to 0.0199.

With RRIRKRPPRLPRPRPRPAETPRP, the “shrunken log2 fold change” value came to 0.336.

Take RRIRIRPPRLPRPRPRPDRVPRP: the “shrunken log2 fold change” value was -0.0924.

As for RRIRPRPPRLPRPRPRPKEAPRP, the “shrunken log2 fold change” value is -0.0122.
